Results: patent US20220281966A1 (Amgen, published 2022)
Where a chain is given by its changes, count along the chain named.

B1: antibody 623 (antibody, V domains shown)
VH: EVQLVESGGGLVKPGGSLRLSCAASGFTFSNAWMSWVRQAPGKGLEWVGRIRSEIDGGTTNYAAPVKGRFTISRDDSKNTLYLQMNSLKTEDTAVYYCATDQVGAYYGDYYGMDVWGQGTLVTVSS
VL: SYELTQPPSVSVSPGQTARITCSGDALPEKYAYWYQQKSGQAPVLVIYEDSKRPSGIPERFSGSSSGTMATLTISGAQVEDEADYYCHSTDSSGNHGVFGGGTKLTVL
B2: antibody 602 (antibody, V domains shown)
VH: B1 VH with E54K, T60I
VL: B1 VL with S51T, H88Y
notes: also called mAb 602
B3: antibody 643 (antibody, V domains shown)
VH: B1 VH with K89R
VL: B1 VL
notes: also called Ab 643; mAb 643
B4: antibody 693 (antibody, V domains shown)
VH: QVQLQESGPGLVKPSETLSLTCSVSGGSISSYYWSWIRQPAGKGLEWIGRIYMTGRTNYNSSLKSRVTMSIDTSKNQLSLKLSFMTAADTAVYYCARESGSSYSYDYWGQGTLVTVSS
VL: SYVLTQPPSVSVAPGQTARITCGGNNIGSKGVHWYQQKPGQAPVLVVYDDSDRPSGIPERFSGSNSGNTATLTISRVEAGDEADYYCQVWVSSSDHHVVFGGGTKLTVV
notes: also called sc693
B5: antibody 353 (antibody, V domains shown)
VH: QVQLQESGPGLVKPSETLSLTCTVSGGSISTYYWSWIRQPPGKGLEWIGYIYYSGSTNYNPSLKSRVTISVDTSKNQFSLKLSSVTAADTAVYYCARDGGHYWDDAFDIWGQGTMVTVSS
VL: DIQMTQSPSSLSASVGDRVTITCRASQGIRNDLDWYQQKPGKAPKRLIYDASSLQSGVPSRFSGSGSGTEFTLTISSLQPEDFATYYCLQHDSYPFTFGPGTKVDIK
B6: antibody 785 (antibody, V domains shown)
VH: not shown
VL: SYVLTQPPSVSVAPGQTARITCGGNNIGNKIVHWYQQKPGQAPVLVVYDDSDRPSGIPERFSGSNSGNTATLTISRVEAGDEADYYCQVWDSSSDHVVFGGGTKLTVL
notes: lambda light chain
B7: antibody 11.18.3 (antibody, V domains shown)
VH: QVQLVESGGGVVQPGRSLRLSCVASGFTFSSYDMHWVRQAPGKGLEWVAVIWYDGSNKYYADSVQGRFTISRDNSKNTLYLQMNSLRAEDTAVYYCTSEDSSGWYDGWFDPWGQGTLVTVSS
VL: DIQMTQSPSSLSASVGDRVTITCRASQGISNYLAWYQQKPGKVPKVLIYAASTLQSGVPSRFSGSGSGTDFTLTISSLQPEDVATYYCQKYNSAPFTFGPGTKVDIK

Legend:
native human IL-13 [1] = biological target: T1, native human IL-13 (human, UniProt P35225 25-146); test: KinExA, Kinetic Direct method (KD repeated from Table 10)
T1 construct: mature; Secreted by stimulated PBMCs; also called hIL-13 (KinExA)

native human IL-13 [2] = biological target: T1, native human IL-13; test: KinExA, Kinetic Direct method; calculated from kon and KD
native human IL-13 [3] = biological target: T1, native human IL-13; test: KinExA, Kinetic inject method (KD repeated from Table 10)
native human IL-13 [4] = biological target: T1, native human IL-13; test: KinExA, Kinetic inject method
[5] = biological target: T2, Recombinant Human IL-13 (R&D 213-IL-005) (human, UniProt P35225 35-146); test: Biacore 2000, mAb captured on goat anti-human surface, IL-13 (R&D) injected, 1:1 fit
native human IL-13 [6] = biological target: T1, native human IL-13; test: KinExA, Kinetic inject method; calculated from kon and KD
mouse IL-13 = biological target: T3, mouse IL-13 (mouse, UniProt P20109 21-131, limits assumed); test: ELISA, epitope mapping with chimeras
T3 sequence (looked up): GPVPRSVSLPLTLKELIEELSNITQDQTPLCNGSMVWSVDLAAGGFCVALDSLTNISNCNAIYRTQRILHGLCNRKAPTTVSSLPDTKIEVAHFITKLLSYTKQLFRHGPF

native human IL-13 [7] = biological target: T1, native human IL-13; test: KinExA equilibrium in solution
[8] = biological target: T4, IL-13 (human IL-13, preparation not specified) (human, UniProt P35225 35-146, limits assumed); test: cell-based or functional assay
[9] = biological target: T5, Human IL-13-rabbit Fc fusion protein (human); test: ELISA on plates coated with IL-13RbFc, antibody without soluble competitor, detection rabbit anti Hu IgG Fc HRP
T5 construct: also called IL-13-RbFc; IL-13RbFc

[10] = biological target: T6, native macaque monkey IL-13 (macaque monkey, UniProt Q0PW92 19-132); test: KinExA equilibrium in solution
T6 construct: also called native macaque IL-13

native human IL-13 [11] = biological target: T1, native human IL-13; test: KinExA, Kinetic Direct method
[12] = biological target: T4, IL-13 (human IL-13, preparation not …); test: cell-based or functional assay; remark: listed apart in the source
[13] = biological target: T2, Recombinant Human IL-13 (R&D 213-IL-005); test: Biacore 2000, mAb captured on goat anti-human surface, IL-13 (R&D) injected, 1:1 fit; second run
[14] = biological target: T7, Human IL-13-Mouse IL-13 Helix D chimera (human with mouse Helix D); test: ELISA on secreted chimeric IL-13
T7 construct: also called Mo HelixD
T7 chain: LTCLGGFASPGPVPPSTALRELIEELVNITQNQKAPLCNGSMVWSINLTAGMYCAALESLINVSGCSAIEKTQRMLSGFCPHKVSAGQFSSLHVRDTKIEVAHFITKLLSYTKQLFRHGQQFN

[15] = biological target: T2, Recombinant Human IL-13 (R&D 213-IL-005); test: Biacore 2000, mAb captured on goat anti-human surface, IL-13 (R&D) injected, 1:1 fit; first run

T4 sequence (P35225 35-146 limits assumed): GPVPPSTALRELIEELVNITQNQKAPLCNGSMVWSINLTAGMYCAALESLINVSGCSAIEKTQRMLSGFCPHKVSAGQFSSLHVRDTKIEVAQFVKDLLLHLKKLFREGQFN
T2 sequence (P35225 35-146 limits assumed): as above
T6 sequence (Q0PW92 entry or part of it limits assumed): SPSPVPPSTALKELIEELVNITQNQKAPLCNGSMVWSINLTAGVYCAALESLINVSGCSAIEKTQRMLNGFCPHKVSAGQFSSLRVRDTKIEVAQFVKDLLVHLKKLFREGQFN
T5 sequence (chain, as listed by the source limits assumed): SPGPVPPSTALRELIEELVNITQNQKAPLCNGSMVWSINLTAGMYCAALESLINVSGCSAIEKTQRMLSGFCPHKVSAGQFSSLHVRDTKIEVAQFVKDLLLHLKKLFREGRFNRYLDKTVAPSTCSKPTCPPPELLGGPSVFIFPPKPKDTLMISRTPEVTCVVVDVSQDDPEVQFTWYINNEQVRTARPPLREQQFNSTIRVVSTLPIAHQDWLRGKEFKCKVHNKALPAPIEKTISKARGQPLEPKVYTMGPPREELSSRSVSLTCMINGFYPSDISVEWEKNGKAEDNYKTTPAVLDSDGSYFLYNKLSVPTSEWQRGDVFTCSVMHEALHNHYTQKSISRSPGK

Binder	Kd [5] [nM]	koff [5] [s⁻¹]	kon [5] [M⁻¹ s⁻¹]	binding result (mouse IL-13)	IC50, Eotaxin-1 assay, Average [8] [nM]	IC50, Eotaxin-1 assay, n = 1 [8] [nM]	IC50, Eotaxin-1 assay, n = 2 [8] [nM]	IC50, Eotaxin-1 assay, n = 3 [8] [nM]	further results
B1	0.052	0.00025	4.9e+06	no binding	0.036	0.031	0.04	0.035	Kd (native human IL-13 [1]): 0.024 nM; koff (native human IL-13 [2]): 0.00027 s⁻¹; Kd (native human IL-13 [3]): 0.024 nM; kon (native human IL-13 [4]): 1.5e+07 M⁻¹ s⁻¹; koff (native human IL-13 [6]): 0.00036 s⁻¹; Kd (native human IL-13 [7]): 0.024 nM; binding result [9]: binds; Kd [10]: 0.037 nM; kon (native human IL-13 [11]): 1.1e+07 M⁻¹ s⁻¹
B2	0.172	0.00051	3e+06	no binding	0.066	0.08	0.053	–	–
B3	0.066	0.00029	4.4e+06	no binding	0.035	0.044	0.028	0.033	IC50 (read off the curve) [12]: ~0.03 nM; Kd (native human IL-13 [7]): 0.013 nM
B4	–	–	–	no binding	0.054	0.038	0.069	0.053	Kd [13]: 0.109 nM; koff [13]: 0.00027 s⁻¹; kon [13]: 2.5e+06 M⁻¹ s⁻¹; binding result [14]: no binding; Kd [15]: 0.189 nM; koff [15]: 0.00038 s⁻¹; kon [15]: 2e+06 M⁻¹ s⁻¹
B5	–	–	–	–	0.101	0.099	0.123	0.08	–
B6	–	–	–	no binding	0.176	0.223	0.144	0.16	binding result [14]: no binding
B7	–	–	–	–	0.245	0.213	0.304	0.217	–
